B1: EHEE_rd4_0726 (parent)
chain: DIEITTNGEEDAKRVIKELQKRNLEYHIEVHGNQWVIKVR

Variants of: B1
Experiment: folding stability dG (cDNA display proteolysis); higher = more stable
Details: PBS, room temperature

Row | Variant | folding stability dG [kJ/mol]
1 | DIEITTNGEEDAMRVIKELQKRNLEYHIEVHGNQWVIKVR [K13M] | 12.4
2 | DIEITTNGEEDAYRVIKELQKRNLEYHIEVHGNQWVIKVR [K13Y] | 11.4
3 | DIEITTNGEEDAWRVIKELQKRNLEYHIEVHGNQWVIKVR [K13W] | 12.5
4 | DIEITTNGEEDAVRVIKELQKRNLEYHIEVHGNQWVIKVR [K13V] | 8.87
5 | DIEITTNGEEDADRVIKELQKRNLEYHIEVHGNQWVIKVR [K13D] | 7.21
6 | DIEITTNGEEDAGRVIKELQKRNLEYHIEVHGNQWVIKVR [K13G] | 7.38
7 | DIEITTNGEEDAFRVIKELQKRNLEYHIEVHGNQWVIKVR [K13F] | 10.8
8 | DIEITTNGEEDAERVIKELQKRNLEYHIEVHGNQWVIKVR [K13E] | 8.26
9 | DIEITTNGEEDAARVIKELQKRNLEYHIEVHGNQWVIKVR [K13A] | 10
10 | DIEITTNGEEDARRVIKELQKRNLEYHIEVHGNQWVIKVR [K13R] | 11.3
11 | DIEITTNGEEDAPRVIKELQKRNLEYHIEVHGNQWVIKVR [K13P] | 0.117
12 | DIEITTNGEEDAIRVIKELQKRNLEYHIEVHGNQWVIKVR [K13I] | 10.6
13 | DIEITTNGEEDACRVIKELQKRNLEYHIEVHGNQWVIKVR [K13C] | 10.8
14 | DIEITTNGEEDANRVIKELQKRNLEYHIEVHGNQWVIKVR [K13N] | 9.7
15 | DIEITTNGEEDAHRVIKELQKRNLEYHIEVHGNQWVIKVR [K13H] | 9.37
16 | DIEITTNGEEDAQRVIKELQKRNLEYHIEVHGNQWVIKVR [K13Q] | 10.5
17 | DIEITTNGEEDASRVIKELQKRNLEYHIEVHGNQWVIKVR [K13S] | 8.09
18 | DIEITTNGEEDATRVIKELQKRNLEYHIEVHGNQWVIKVR [K13T] | 8.2
19 | DIEITTNGEEDALRVIKELQKRNLEYHIEVHGNQWVIKVR [K13L] | 11.6
20 | DIEITTNGEEYAKRVIKELQKRNLEYHIEVHGNQWVIKVR [D11Y] | 9.26
21 | DIEITTNGEERAKRVIKELQKRNLEYHIEVHGNQWVIKVR [D11R] | 8.32

Row | Variant | folding stability dG [kJ/mol]
22 | DIEITTNGEESAKRVIKELQKRNLEYHIEVHGNQWVIKVR [D11S] | 9.63
23 | DIEITTNGEEFAKRVIKELQKRNLEYHIEVHGNQWVIKVR [D11F] | 9.65
24 | DIEITTNGEEKAKRVIKELQKRNLEYHIEVHGNQWVIKVR [D11K] | 7.46
25 | DIEITTNGEEIAKRVIKELQKRNLEYHIEVHGNQWVIKVR [D11I] | 8.49
26 | DIEITTNGEEMAKRVIKELQKRNLEYHIEVHGNQWVIKVR [D11M] | 10.8
27 | DIEITTNGEEVAKRVIKELQKRNLEYHIEVHGNQWVIKVR [D11V] | 8.08
28 | DIEITTNGEENAKRVIKELQKRNLEYHIEVHGNQWVIKVR [D11N] | 9.52
29 | DIEITTNGEEWAKRVIKELQKRNLEYHIEVHGNQWVIKVR [D11W] | 10.9
30 | DIEITTNGEEPAKRVIKELQKRNLEYHIEVHGNQWVIKVR [D11P] | 6.24
31 | DIEITTNGEEEAKRVIKELQKRNLEYHIEVHGNQWVIKVR [D11E] | 12.4
32 | DIEITTNGEELAKRVIKELQKRNLEYHIEVHGNQWVIKVR [D11L] | 8.87
33 | DIEITTNGEEAAKRVIKELQKRNLEYHIEVHGNQWVIKVR [D11A] | 11.4
34 | DIEITTNGEEQAKRVIKELQKRNLEYHIEVHGNQWVIKVR [D11Q] | 11
35 | DIEITTNGEETAKRVIKELQKRNLEYHIEVHGNQWVIKVR [D11T] | 8.59
36 | DIEITTNGEEGAKRVIKELQKRNLEYHIEVHGNQWVIKVR [D11G] | 8.04
37 | DIEITTNGEEHAKRVIKELQKRNLEYHIEVHGNQWVIKVR [D11H] | 10.6
38 | DIEITTNGEEDAKRHIKELQKRNLEYHIEVHGNQWVIKVR [V15H] | 5.13
39 | DIEITTNGEEDAKRLIKELQKRNLEYHIEVHGNQWVIKVR [V15L] | 9.21
40 | DIEITTNGEEDAKRMIKELQKRNLEYHIEVHGNQWVIKVR [V15M] | 7.5
41 | DIEITTNGEEDAKRKIKELQKRNLEYHIEVHGNQWVIKVR [V15K] | 5
42 | DIEITTNGEEDAKRWIKELQKRNLEYHIEVHGNQWVIKVR [V15W] | 10.1

Row | Variant | folding stability dG [kJ/mol]
43 | DIEITTNGEEDAKRNIKELQKRNLEYHIEVHGNQWVIKVR [V15N] | 0.418
44 | DIEITTNGEEDAKRQIKELQKRNLEYHIEVHGNQWVIKVR [V15Q] | 3.64
45 | DIEITTNGEEDAKRAIKELQKRNLEYHIEVHGNQWVIKVR [V15A] | 5.75
46 | DIEITTNGEEDAKRIIKELQKRNLEYHIEVHGNQWVIKVR [V15I] | 12.2
47 | DIEITTNGEEDAKRYIKELQKRNLEYHIEVHGNQWVIKVR [V15Y] | 8.34
48 | DIEITTNGEEDAKREIKELQKRNLEYHIEVHGNQWVIKVR [V15E] | 1.69
49 | DIEITTNGEEDAKRRIKELQKRNLEYHIEVHGNQWVIKVR [V15R] | 4.1
50 | DIEITTNGEEDAKRSIKELQKRNLEYHIEVHGNQWVIKVR [V15S] | 1.16
51 | DIEITTNGEEDAKRPIKELQKRNLEYHIEVHGNQWVIKVR [V15P] | -2.01
52 | DIEITTNGEEDAKRTIKELQKRNLEYHIEVHGNQWVIKVR [V15T] | 5.32
53 | DIEITTNGEEDAKRGIKELQKRNLEYHIEVHGNQWVIKVR [V15G] | -0.891
54 | DIEITTNGEEDAKRCIKELQKRNLEYHIEVHGNQWVIKVR [V15C] | 9.59
55 | DIEITTNGEEDAKRFIKELQKRNLEYHIEVHGNQWVIKVR [V15F] | 8.26
56 | DIEITTNGEEDAKWVIKELQKRNLEYHIEVHGNQWVIKVR [R14W] | 11.9
57 | DIEITTNGEEDAKAVIKELQKRNLEYHIEVHGNQWVIKVR [R14A] | 9.73
58 | DIEITTNGEEDAKHVIKELQKRNLEYHIEVHGNQWVIKVR [R14H] | 7.67
59 | DIEITTNGEEDAKQVIKELQKRNLEYHIEVHGNQWVIKVR [R14Q] | 8.36
60 | DIEITTNGEEDAKEVIKELQKRNLEYHIEVHGNQWVIKVR [R14E] | 8.55
61 | DIEITTNGEEDAKLVIKELQKRNLEYHIEVHGNQWVIKVR [R14L] | 9.62
62 | DIEITTNGEEDAKKVIKELQKRNLEYHIEVHGNQWVIKVR [R14K] | 10.2

From the MegaScale stability set (Tsuboyama et al. 2023)
